# From patent US20240043559A1 (SHANGHAI HENLIUS BIOTECH, published 2024)
# B1: 1B01 llama-human chimeric bivalent VHH-Fc (Fc fusion)
# chain: QVQLQESGGGLVQAGGSLRLSCAAVGLPFSNYAMGWFRQAPGEEREFVSAVSANGGNEYYADSVKDRFTISRDNAKNTVYLRMLSLKLEDTAIYYCATVRRRGGTFTVGSYRGQGTQVTVSS
# notes: also called Clone 1B01; 1B01 llama VHH; not shown: human IgG1 Fc fused to the C-terminal of the VHH
# Columns and labels:
# [1] = molecular target: recombinant human GPC3 protein (human) (UniProt P51654); assay: ELISA on plate-coated human GPC3
# [2] = molecular target: human GPC3 expressed endogenously on hepatoma cells (HepG2, Hep3B) (human) (UniProt P51654); assay: flow cytometry on HepG2 cells (endogenous GPC3)
# [3] = molecular target: human GPC3 expressed endogenously on hepatoma cells (HepG2, Hep3B) (human) (UniProt P51654); assay: flow cytometry on Hep3B cells (endogenous GPC3)
# [4] = molecular target: T1, human GPC3 expressed endogenously on hepatoma cells (HepG2, Hep3B) (human, UniProt P51654 25-554); assay: flow cytometry on HepG2 cells (endogenous GPC3)
# T1 construct: also called GPC3 on HepG2; GPC3 on Hep3B
# T1 sequence (P51654 other isoform, or with tags, fused parts or gaps limits assumed, form in doubt): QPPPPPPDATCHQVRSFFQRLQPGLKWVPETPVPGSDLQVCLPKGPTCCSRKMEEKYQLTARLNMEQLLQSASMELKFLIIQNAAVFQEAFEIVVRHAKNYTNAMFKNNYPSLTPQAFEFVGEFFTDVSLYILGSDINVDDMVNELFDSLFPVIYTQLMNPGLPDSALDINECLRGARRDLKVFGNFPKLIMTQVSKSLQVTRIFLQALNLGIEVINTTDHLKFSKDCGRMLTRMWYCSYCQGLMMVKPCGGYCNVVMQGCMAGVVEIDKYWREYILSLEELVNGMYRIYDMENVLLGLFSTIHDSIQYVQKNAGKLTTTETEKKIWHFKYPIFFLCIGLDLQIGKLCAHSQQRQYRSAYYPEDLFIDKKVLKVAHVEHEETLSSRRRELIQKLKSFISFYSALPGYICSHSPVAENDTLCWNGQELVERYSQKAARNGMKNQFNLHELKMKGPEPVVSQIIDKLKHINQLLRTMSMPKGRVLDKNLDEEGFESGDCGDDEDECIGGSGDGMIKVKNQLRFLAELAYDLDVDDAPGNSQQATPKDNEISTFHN
# human GPC3 expressed endogenously on hepatoma cells (HepG2, Hep3B) (human), sequence (P51654 other isoform, or with tags, fused parts or gaps limits assumed, form in doubt): as above
# recombinant human GPC3 protein (human), sequence (P51654 other isoform, or with tags, fused parts or gaps limits assumed, form in doubt): as above
Molecule,EC50 (read off the curve) [1] [µg/mL],EC50 (read off the curve) [2] [nM],EC50 (read off the curve) [3] [nM],EC50 (read off the curve) [4] [nM]
HN3 VHH-Fc (Fc fusion),0.02,2,2,
B1,,,,~0.3
